The values below come from PMC3265435, “More than just a metabolic regulator - elucidation and validation of new targets of PdhR in Escherichia coli”.

Data set [1] has as its target T1, PdhR (his-tagged) (Escherichia coli, UniProt P0ACL9 1-254). The data set is described as follows: EMSA; 0.1 pmol DNA, 54 pmol PdhR; EMSA as in ref 7; 0.1 pmol of each DNA fragment with 54 pmol PdhR; buffer, salt, pH and temperature not given. The conditions noted are these: protein: recombinant, tags: His, chain copies: 2, label: 5'DY682 (strand 1), 5'DY782 (strand 2).

Data set [2] addresses T1, PdhR (his-tagged). The data set is described as follows: EMSA; 0.1 pmol DNA, 54 pmol PdhR; same binding activity as pdhR site; EMSA as in ref 7; 0.1 pmol of each DNA fragment with 54 pmol PdhR; buffer, salt, pH and temperature not given. The conditions noted are these: protein: recombinant; tags: His; chain copies: 2; label: 5'DY682 (strand 1); 5'DY782 (strand 2); blunt.

T1 sequence (P0ACL9 whole entry, the tested form may be a part): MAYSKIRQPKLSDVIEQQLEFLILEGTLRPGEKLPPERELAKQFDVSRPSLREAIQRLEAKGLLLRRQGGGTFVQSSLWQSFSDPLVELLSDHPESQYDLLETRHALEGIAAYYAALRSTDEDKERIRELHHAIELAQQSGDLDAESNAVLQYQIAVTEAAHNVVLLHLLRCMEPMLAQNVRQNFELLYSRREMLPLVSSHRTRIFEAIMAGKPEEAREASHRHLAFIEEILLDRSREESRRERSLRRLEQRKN

B1: PdhRop (dsDNA)
DNA 1: GCCGAAGTCAATTGGTCTTACCAATTTCATGTCTGTG
DNA 2: CACAGACATGAAATTGGAAGACCAATTGACTTCGGC
For B1, the binding result in the data set with PdhR (his-tagged) [1] (printed strands not exact complements: S23 lacks one T opposite an A of S22 (37/36 nt; possible misprint)) is listed as “binds”.

B2: GlcDop (dsDNA)
DNA 1: CTATCTCTTTAGCTACCGGTCAGACCATTTTTTTTCCAGCTCT
DNA 2: AGAGCTGGAAAAAAAATGGTCTGACCGGTAGCTAAAGAGATAG
As for B2, the binding result with PdhR (his-tagged) [2] is “binds”.

B3: MetBop (dsDNA)
DNA 1: AACGGCTATTTGGGATTTGCTCAATCTATACGCAAAGAAGTTT
DNA 2: AAACTTCTTTGCGTATAGATTGAGCAAATCCCAAATAGCCGTT
On to B3, for which, in the data set with PdhR (his-tagged) [1] (blunt), the binding result is recorded as “no binding”.
